As a reminder, the Kd is the concentration at which binding is half-saturated. Read a low Kd as tighter binding. As a reminder, the stoichiometry N is the number of molecules, sites or subunits per partner or assembly.

Results on three molecules are retold here after article PMC5339894, “G196 epitope tag system: a novel monoclonal antibody, G196, recognizes the small, soluble peptide DLVPR with high affinity” (Scientific Reports, 2017).

Where no end group is shown, it is not given here.

Assay [1] deals with mAb G196. The assay is described as follows: Western blot epitope mapping of bacterially expressed GST proteins with mAb G196. It counts as binding, mouse. The note with it: purified or bacterially expressed GST proteins, SDS-PAGE, denaturing conditions. As for the experimental part:
To confirm that the G196 epitope is located on the C-terminal extension of the 4T-2 fragment, and to further determine the precise location of the G196 mAb epitope, double-stranded oligonucleotides encoding peptides containing the C-terminal extension were inserted into the BamHI/EcoRI restriction sites within the pGEX-6P-1 vector. Total protein lysates were prepared from Escherichia coli that had been transformed with individual GST fusion protein constructs.
All short 4T-2 fragments were generated by annealing complementary oligos. The oligos used to synthesize the indicated fragments are summarized (Fasmac, Kanagawa, Japan) in Supplementary Table 2. Annealing reaction mixtures contained equimolar amounts of each oligo and the reactions were performed in a thermal cycler, with initial denaturation at 98 °C for 3 min, followed by a temperature decrease of 2 °C every 20 s down to 4 °C to allow the oligos to anneal slowly. The oligos contained the BamHI/EcoRI restriction sites and the 4T-2 fragments were cloned into these restriction sites within the pGEX-6P-1 vector (GE Healthcare, Buckinghamshire, England).
A fragment of the GST gene, encoding residues 2–212, was prepared by polymerase chain reaction (PCR) amplification using the Pfu polymerase (BioAcademia) and the pGEX-6P-1 plasmid as the template. […]

Assay [2] has as its system anti-FLAG M2 mAb affinity column. The note with it: mild pH (pH 3.5–4.4); cited from earlier work. The text has this: Previously, we studied the subcellular localization of myocardin-related transcription factor (MRTF)-B, a shuttle protein between the nucleus and cytoplasm that is expressed in response to various stimuli.
Assay [3] has as its target T1, synthetic peptide GSDLVPRGS (synthetic).
T1 construct: source: synthetic peptide (Tufts University Core Facility)
T1 chain: GSDLVPRGS
As to the kind of experiment: ITC; VP-ITC, 25 C; cell: 25 uM G196 Fab in 20 mM Tris-HCl (pH 8.0), 150 mM NaCl; peptide (500 uM) injected; single-site model. The note with it: both partners purified.

In the case of “6P-12: GST fusion protein with C-terminal extension fragment inserted in pGEX-6P-1 ({GST}-SDLVPRGSP)”, the “recognition by mAb G196 in Western blot” value in assay [1] is on record as “detected”.

With `N=C(N)NCCC[C@H](N)C(=O)O` [Arg], the “dissociation of FLAG-tagged proteins from column” value in assay [2] is “effectively dissociate FLAG-tagged proteins”.

B1: G196 antigen binding fragment (Fab) (Fab, V domains shown)
VH: QVKLQESGAELVKPGASVKLSCKASGYTFTNYWMHWVKLRPGQGFEWIGEINPSNGGSNYNEKFKRKATLTVDKSSSTAYMQLSSLTSEDSAVFYCSIWDSYFDYWGQGTTLTVSS
VL: NIVMTQSPKSMSMSVGERVTLTCKASENVVTYVSWYQQKPEQSPKLLIYGASNRYTGVPDRFTGSGSATDFTLTISSVQAEDLADYHCGQGYSYPYTFGGGTKLEIK
notes: Fab part of the heavy chain of m1; chain in PDB 5H2B; as the light chain of m1; also called G196 Fab; G196 IgG Fab; source: purified mAb G196 IgG fragmented using papain, Fab purified by protein A chromatography
Turning to B1, in assay [3], binding was put at a Kd of 1.25 ± 0.77 nM, the dH was -15.3 kcal/mol and the “stoichiometry N” value stood at 1.2 ± 0.05.
